Source: US20240082183A1, “METHODS FOR PREVENTING OR TREATING CONDITIONS RELATED TO T CELL MEDIATED INTESTINAL DISORDERS” (The Regents of the University of Michigan, priority 2021, published 2024)

Legend:
SDHA [1] = molecular target: T1, SDHA (Mus musculus, UniProt Q8K2B3); experiment: SDHA cleavage assay, cell free, recombinant SDHA; assay type: biochemical; design: purchased LSBio LS-G26030; details: 90 minutes
Protocol: (§1) SDHA cleavage assay: 75 ug Isolated mitochondria in 25 ul EDB buffer (10 mM HEPES, 50 mM NaCl, 2 mM MgCl2, 5 mM EGTA and 1 mM DTT) were incubated with 75 ng mouse Granzyme B at 37 degrees and then separated by SDS-PAGE^70. Mouse recombinant SDHA protein with His Tag (LS-G26030, LSBio, Seattle, WA) and mouse recombinant SDHB protein with His Tag (LS-G26026, LSBio) in EDB buffer (25 ug in 8.3 ul) were incubated with 25 ng mouse Granzyme B at 37 degrees for 90 minutes. Proteins were then separated by SDS-PAGE and blotted with anti-His Tag antibody (LS-C60077, 1:1000, LSBio) and anti-SDHA (#ab139181, 1:1000, Abcam).

mutated SDHA protein = molecular target: T2, mutated SDHA protein (Mus musculus, UniProt Q8K2B3, D241A); experiment: GzmB treatment of SDHA mutated at the putative cleavage site; assay type: biochemical; details: 6 hours
T2 construct: host or cells: E. coli BL21 Star (DE3)
Protocol: Generation of normal SDHA protein and mutated SDHA protein: Target DNA sequence of mouse normal SDHA and mutated SDHA was optimized and synthesized (GenScript). The synthesized sequence was cloned into vector pET-30a(+) with His tag for protein expression in E. coli. E. coli strain BL21 Star™(DE3) was transformed with recombinant plasmid. A single colony was inoculated into LB medium containing related antibiotic; culture was incubated in 37° C. at 200 rpm and then induced with IPTG. SDS-PAGE was used to monitor the expression. Recombinant BL21 Star™ (DE3) stored in glycerol was inoculated into TB medium containing related antibiotic and cultured at 37° C. When the OD600 reached about 1.2, cell culture was induced with IPTG at 15° C./16 h. Cells were harvested by centrifugation. Cell pellets were resuspended with lysis buffer followed by sonication. The precipitate after centrifugation was dissolved using denaturing agent. Target protein was obtained by one-step purification using Ni column. Target protein was sterilized by 0.22 μm filter before stored in aliquots. The concentration was determined by Bradford protein assay with BSA as standard. The protein purity and molecular weight were determined by standard SDS-PAGE along with Western blot confirmation. […]

Recombinant SDHB = molecular target: T3, Recombinant SDHB (Mus musculus, UniProt Q9CQA3); experiment: SDHA cleavage assay, cell free, recombinant SDHB control; assay type: biochemical; details: 90 minutes
T3 construct: purchased LSBio LS-G26026
T3 sequence (Q9CQA3 31-282): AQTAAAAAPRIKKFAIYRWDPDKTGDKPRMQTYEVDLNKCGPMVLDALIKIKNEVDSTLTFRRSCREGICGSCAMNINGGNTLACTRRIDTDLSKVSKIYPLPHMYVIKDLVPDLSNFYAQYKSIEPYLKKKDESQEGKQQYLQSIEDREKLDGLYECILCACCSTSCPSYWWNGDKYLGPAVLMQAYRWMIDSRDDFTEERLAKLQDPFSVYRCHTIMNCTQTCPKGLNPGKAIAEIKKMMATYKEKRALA
Protocol: as §1

SDHA [2] = molecular target: T1, SDHA; experiment: SDHA cleavage assay, isolated mitochondria from IECs; assay type: biochemical; design: 75 ug Isolated mitochondria in 25 ul EDB buffer; from tissue; host or cells: mitochondria isolated from mouse intestinal epithelial cells; details: ex vivo
Protocol: as §1

[3] = system: primary colonic epithelial cells (PCECs); experiment: Apoptosis of pre-treated PCECs induced by perforin and Granzyme B; assay type: cell-based, C57BL/6 mice; details: pre-treated 2 hours, then perforin and Granzyme B 4 hours
Protocol: Cell culture: C57BL/6 primary colonic epithelial cells (PCEC, C57-6047, Cell Biologics, Chicago, IL) were cultured in compete epithelial growth medium supplemented with insulin-transferrin-selenium, epidermal growth factor, glutamine, antibiotics, antimycotics and fecal bovine serum (#M6621, Cell Biologics). Cells were routinely tested for mycoplasma contamination using MycoAlert (#LT07-318, Lonza, Switzerland). Cells were treated with Mouse active perforin (#APB317Mu01, Cloud-Clone Corp., Katy, TX) and recombinant mouse Granzyme B (#140-03, PeproTech, Rocky Hill, NJ) for 4 to 6 hours in indicated concentrations following manufacturer's recommendations. Cells were incubated with GDF-15 (#8944-GD-025, 500 pg/mL, R&D Systems, Minneapolis, MN), Tiron (#172553, 10 mM, Sigma-Aldrich, St. Louis, MO), Trolox (#648471, 0.5 mM, Sigma-Aldrich), 4-Octyl itaconate (#SML2338, 0.1 mM, Sigma-Aldrich) and NAD (#N8285, 1 mM, Sigma-Aldrich).

T1 sequence (Q8K2B3 43-664): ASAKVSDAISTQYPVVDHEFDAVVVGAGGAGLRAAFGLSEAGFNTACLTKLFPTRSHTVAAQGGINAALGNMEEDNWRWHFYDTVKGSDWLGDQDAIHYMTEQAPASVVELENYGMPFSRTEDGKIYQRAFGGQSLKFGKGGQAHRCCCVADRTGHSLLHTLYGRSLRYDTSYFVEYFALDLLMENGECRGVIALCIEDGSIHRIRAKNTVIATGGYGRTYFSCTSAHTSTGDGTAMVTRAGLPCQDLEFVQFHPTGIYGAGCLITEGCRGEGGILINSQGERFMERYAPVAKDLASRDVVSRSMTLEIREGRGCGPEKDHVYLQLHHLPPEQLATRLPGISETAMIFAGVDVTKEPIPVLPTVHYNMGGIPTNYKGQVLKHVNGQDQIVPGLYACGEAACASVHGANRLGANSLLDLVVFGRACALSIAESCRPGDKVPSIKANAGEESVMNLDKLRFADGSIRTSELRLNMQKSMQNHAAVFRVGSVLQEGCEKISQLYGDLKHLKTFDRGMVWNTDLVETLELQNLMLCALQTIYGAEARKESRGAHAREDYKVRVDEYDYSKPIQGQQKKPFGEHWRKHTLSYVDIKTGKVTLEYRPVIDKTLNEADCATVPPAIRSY
T2 sequence (Q8K2B3 43-664 D241A): as the sequence (Q8K2B3 43-664) above, with D199A counted along it

B1: GzmB: recombinant mouse Granzyme B (protein)
chain: IIGGHEVKPHSRPYMALLSIKDQQPEAICGGFLIREDFVLTAAHCEGSIINVTLGAHNIKEQEKTQQVIPMVKCIPHPDYNPKTFSNDIMLLKLKSKAKRTRAVRPLNLPRRNVNVKPGDVCYVAGWGRMAPMGKYSNTLQEVELTVQKDRECESYFKNRYNKTNQICAGDPKTKRASFRGDSGGPLVCKKVAAGIVSYGYKDGSPPRAFTKVSSFLSWIKKTMKSS
proteolysis of recombinant SDHA (SDHA [1]): direct proteolysis | proteolysis of mutated SDHA (Ile-Glu-Asp-Gly to Ile-Glu-Ala-Gly) (mutated SDHA protein): prevented proteolysis | proteolysis of recombinant SDHB (Recombinant SDHB): not SDHB | proteolysis of SDHA in isolated mitochondria (SDHA [2]): caused proteolysis of SDHA

B2: GDF15: growth and differentiation factor15 that promotes the tissue tolerance (protein, UniProt Q99988 195-308, looked up)
Growth/differentiation factor …: ARARNGDHCPLGPGRCCRLHTVRASLEDLGWADWVLSPREVQVTMCIGACPSQFRAANMHAQIKTSLHRLKPDTVPAPCCVPASYNPMVLIQKTDTGVSLQTYDDLLAKDCHCI
apoptosis of PCECs induced by GranzymeB and perforin [3]: did not reduce apoptosis
